Reference: doi:10.1101/2025.10.09.681382

Biological target: Rubisco (Chlamydomonas reinhardtii (endogenous, purified from cells)) (UniProt P00877)
Test: fluorescence correlation spectroscopy; 20 nM EPYC1-GFP mixed with 2 μM Rubisco (no phase separation at this concentration); diffusion coefficient of EPYC1-GFP from a single-species fit

- diffusion coefficient of EPYC1-GFP with Rubisco (60 μm^2/s without Rubisco): 41 μm^2/s
Substance: EPYC1-GFP, unphosphorylated (mock-treated) (natural protein)
